Test results: publication PMC5496502 (Chemical Science, 2015)

Target: MET-Fc: extracellular MET domain fused with human IgG1-Fc (human, UniProt P08581 25-932)
Experiment: AlphaScreen or HTRF

MET-Fc: extracellular MET domain fused with human IgG1-Fc, sequence (P08581 25-932): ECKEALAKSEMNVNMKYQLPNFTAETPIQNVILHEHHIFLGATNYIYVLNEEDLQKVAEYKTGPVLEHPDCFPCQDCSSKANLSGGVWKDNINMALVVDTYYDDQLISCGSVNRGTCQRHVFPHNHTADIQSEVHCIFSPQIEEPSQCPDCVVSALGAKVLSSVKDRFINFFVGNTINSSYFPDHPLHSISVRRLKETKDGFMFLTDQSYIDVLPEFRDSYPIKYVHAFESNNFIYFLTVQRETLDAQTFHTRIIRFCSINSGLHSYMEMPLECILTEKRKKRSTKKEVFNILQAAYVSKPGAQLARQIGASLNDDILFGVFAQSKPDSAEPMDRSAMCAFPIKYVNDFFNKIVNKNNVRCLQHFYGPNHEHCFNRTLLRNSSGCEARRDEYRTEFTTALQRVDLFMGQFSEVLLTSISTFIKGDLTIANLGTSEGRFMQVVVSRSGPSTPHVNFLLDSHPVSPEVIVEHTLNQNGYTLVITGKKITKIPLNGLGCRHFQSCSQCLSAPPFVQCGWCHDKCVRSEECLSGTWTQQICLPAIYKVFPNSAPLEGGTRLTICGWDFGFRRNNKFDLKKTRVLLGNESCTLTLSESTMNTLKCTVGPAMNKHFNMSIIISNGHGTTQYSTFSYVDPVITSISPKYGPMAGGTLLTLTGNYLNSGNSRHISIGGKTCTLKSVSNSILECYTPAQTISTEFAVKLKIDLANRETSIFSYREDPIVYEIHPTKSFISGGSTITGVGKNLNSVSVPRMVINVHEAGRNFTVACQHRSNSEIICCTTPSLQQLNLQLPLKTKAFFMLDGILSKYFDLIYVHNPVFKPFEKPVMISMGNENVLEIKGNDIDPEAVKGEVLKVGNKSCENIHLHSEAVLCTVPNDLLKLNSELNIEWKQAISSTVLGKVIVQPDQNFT

Kd: ~16 nM
B1: K1B: synthetic K1 domain of HGF/SF (residues 125-209) with C-terminal Gly-Gly-Lys(biotin) (domain or fragment)
chain: IRNCIIGKGRSYKGTVSITKSGIKCQPWSSMIPHEHSFLPSSYRGKDLQENYCRNPRGEEGGPWCFTSNPEVRYEVCDIPQCSEVGGK
modifications: biotin on the side chain of the added C-terminal lysine; three disulfide bonds
